Substitutions are numbered along the chain they refer to.
T1: human FcγRIIa type R (131Arg) extracellular domain with C-terminal His tag (human, UniProt P12318 34-217)
T1 sequence (looked up): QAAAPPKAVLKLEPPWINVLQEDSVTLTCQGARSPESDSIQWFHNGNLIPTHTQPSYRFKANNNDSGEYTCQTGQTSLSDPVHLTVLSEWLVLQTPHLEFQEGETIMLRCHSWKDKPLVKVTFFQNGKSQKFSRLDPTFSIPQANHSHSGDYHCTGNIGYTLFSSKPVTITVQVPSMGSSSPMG

T2: human FcγRIIa type H (131His) extracellular domain with C-terminal His tag (human, UniProt P12318 34-217)
T2 sequence (looked up): T1 sequence (looked up) with R134H

T3: human FcγRIIb extracellular domain with C-terminal His tag (human, UniProt P31994 43-217)
T3 sequence (looked up): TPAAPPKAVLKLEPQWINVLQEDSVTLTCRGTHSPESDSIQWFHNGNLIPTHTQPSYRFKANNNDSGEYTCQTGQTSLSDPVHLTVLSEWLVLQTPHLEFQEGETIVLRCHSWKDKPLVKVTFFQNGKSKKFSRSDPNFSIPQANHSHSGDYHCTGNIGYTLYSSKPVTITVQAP

T4: human FcγRIIb extracellular domain with C-terminal His tag (human, UniProt P31994 43-217)
T4 sequence (looked up): T3 sequence (looked up)

T5: human FcγRIIa type H extracellular domain with C-terminal His tag (human, UniProt P12318 34-217)
T5 sequence (looked up): T1 sequence (looked up) with R134H

T6: human FcγRIIa type R extracellular domain with C-terminal His tag (human, UniProt P12318 34-217)
T6 sequence (looked up): T1 sequence (looked up)

B1: IL6R-BP265/IL6R-L (antibody, human IgG1, kappa)
heavy: QVQLQESGPGLVKPSETLSLTCAVSGHSISHDHAWSWVRQPPGEGLEWIGFISYSGITNYNPSLQGRVTISRDNSKNTLYLQMNSLRAEDTAVYYCARSLARTTAMDYWGEGTLVTVSSASTKGPSVFPLAPSSKSTSGGTAALGCLVKDYFPEPVTVSWNSGALTSGVHTFPAVLQSSGLYSLSSVVTVPSSSLGTQTYICNVNHKPSNTKVDKKVEPKSCDKTHTCPPCPAPELLGDDSVFLFPPKPKDTLMISRTPEVTCVVVDVSEEDGEVKFNWYVDGVEVHNAKTKPREEQDNSTYRVVSVLTVLHQDWLNGKEYKCKVSNKALPRPIEKTISKAKGQPREPQVYTLPPSRDELTKNQVSLTCLVKGFYPSDIAVEWESNGQPENNYKTTPPVLDSDGSFFLYSKLTVDKSRWQQGNVFSCSVMHEALHNHYTQESLSLSP
light: not shown
B2: IL6R-BP268/IL6R-L (antibody, human IgG1, kappa)
heavy: B1 heavy with E235D, R332A
light: not shown
B3: IL6R-BP435/IL6R-L (antibody, human IgG1, kappa)
heavy: B1 heavy with E235D, E270D, K328A, I334T
light: not shown
B4: IL6R-BP483/IL6R-L (antibody, human IgG1, kappa)
heavy: B1 heavy with E235D, V268L, S269A, D298Y, R332A
light: not shown
B5: IL6R-BP493/IL6R-L (antibody, human IgG1, kappa)
heavy: B1 heavy with D239G, V266I, S269A, R332A
light: not shown
B6: IL6R-BP487/IL6R-L (antibody, human IgG1, kappa)
heavy: B1 heavy with E235D, V266I, S269A, D298Y, P398M
light: not shown
B7: IL6R-BP488/IL6R-L (antibody, human IgG1, kappa)
heavy: B1 heavy with E235D, V266I, S269A
light: not shown
B8: IL6R-BP425/IL6R-L (antibody, human IgG1, kappa)
heavy: B1 heavy with E235D, V268L, S269A, D298Y
light: not shown
B9: IL6R-BP431/IL6R-L (antibody, human IgG1, kappa)
heavy: B1 heavy with E235D, S269G, E271D, D298Y
light: not shown
B10: IL6R-BP436/IL6R-L (antibody, human IgG1, kappa)
heavy: B1 heavy with E235D, S269A, I334T
light: not shown
B11: IL6R-BP479/IL6R-L (antibody, human IgG1, kappa)
heavy: B1 heavy with E235D, V266I, V268L, S269A, D298Y, R332A
light: not shown
B12: IL6R-BP489/IL6R-L (antibody, human IgG1, kappa)
heavy: B1 heavy with E235D, V266I, S269A, P398M
light: not shown
B13: IL6R-BP491/IL6R-L (antibody, human IgG1, kappa)
heavy: B1 heavy with V266I, S269A
light: not shown
B14: IL6R-BP492/IL6R-L (antibody, human IgG1, kappa)
heavy: B1 heavy with D239G, V266I, S269A, D298Y, R332A
light: not shown
B15: IL6R-BP494/IL6R-L (antibody, human IgG1, kappa)
heavy: B1 heavy with S269A
light: not shown
B16: IL6R-BP498/IL6R-L (antibody, human IgG1, kappa)
heavy: B1 heavy with E235D, V266I, S269A, D298Y, P398L
light: not shown
B17: IL6R-BP499/IL6R-L (antibody, human IgG1, kappa)
heavy: B1 heavy with E235D, V266I, S269A, P398L
light: not shown
B18: IL6R-BP440/IL6R-L (antibody, human IgG1, kappa)
heavy: B1 heavy with E235D, V266I, D298Y
light: not shown
B19: IL6R-BP441/IL6R-L (antibody, human IgG1, kappa)
heavy: B1 heavy with E235D, V268L, D298Y
light: not shown
B20: IL6R-BP481/IL6R-L (antibody, human IgG1, kappa)
heavy: B1 heavy with E235D, V266I, S269A, D298Y, R332A
light: not shown
B21: IL6R-BP480/IL6R-L (antibody, human IgG1, kappa)
heavy: B1 heavy with E235D, V268L, E271D, D298Y, R332A
light: not shown
B22: IL6R-BP116/IL6R-L (antibody, human IgG1, kappa)
heavy: B1 heavy with D239G, E270H, G273P, D298Y, K328T, R332A
light: not shown
B23: IL6R-BP117/IL6R-L (antibody, human IgG1, kappa)
heavy: B1 heavy with D239G, E270H, G273P, D298Y, K328D, R332A
light: not shown
B24: IL6R-BP118/IL6R-L (antibody, human IgG1, kappa)
heavy: B1 heavy with D239G, E270H, G273P, D298Y, K328S, R332A
light: not shown
B25: IL6R-BP121/IL6R-L (antibody, human IgG1, kappa)
heavy: B1 heavy with D239G, E270H, G273P, D298Y, K328Q, R332A
light: not shown
B26: IL6R-BP126/IL6R-L (antibody, human IgG1, kappa)
heavy: B1 heavy with D239G, E270H, G273P, D298Y, K328L, R332A
light: not shown
B27: IL6R-BP136/IL6R-L (antibody, human IgG1, kappa)
heavy: B1 heavy with D239G, E270H, G273P, D298Y, K328A, R332A
light: not shown
B28: IL6R-BP142/IL6R-L (antibody, human IgG1, kappa)
heavy: B1 heavy with D239G, E270H, G273P, D298Y, K328N, R332A
light: not shown
B29: IL6R-BP912/IL6R-L (antibody, human IgG1, kappa)
heavy: B1 heavy with D239G, E270H, G273P, D298Y
light: not shown
B30: IL6R-BP911/IL6R-L (antibody, human IgG1, kappa)
heavy: B1 heavy with D239G, E270H, G273P, D298Y, R332K
light: not shown
B31: IL6R-BP204/IL6R-L (antibody, human IgG1, kappa)
heavy: B1 heavy with E235D, D239G, E270H, D298Y, K328A
light: not shown
B32: IL6R-BP209/IL6R-L (antibody, human IgG1, kappa)
heavy: B1 heavy with E270D, D298Y, K328A
light: not shown
B33: IL6R-BP184/IL6R-L (antibody, human IgG1, kappa)
heavy: B1 heavy with E235D, D239G, E270H, D298Y, R332K
light: not shown
B34: IL6R-BP213/IL6R-L (antibody, human IgG1, kappa)
heavy: B1 heavy with E235D, D239G, E270D, D298Y
light: not shown
B35: IL6R-BP087/IL6R-L (antibody, human IgG1, kappa)
heavy: B1 heavy with L236Y, D239G, E270H, G273P, D298Y, R332K
light: not shown
B36: IL6R-BP143/IL6R-L (antibody, human IgG1, kappa)
heavy: B1 heavy with L236Y, D239G, E270H, G273P, D298Y, K328A, R332A
light: not shown
B37: IL6R-BP150/IL6R-L (antibody, human IgG1, kappa)
heavy: B1 heavy with L236Y, E270H, G273P, D298Y, K328A
light: not shown
B38: IL6R-BP183/IL6R-L (antibody, human IgG1, kappa)
heavy: B1 heavy with E235D, L236Y, D239G, E270H, D298Y, K328A, R332K
light: not shown
B39: IL6R-BP186/IL6R-L (antibody, human IgG1, kappa)
heavy: B1 heavy with E235D, L236Y, E270H, K328A, R332K
light: not shown
B40: IL6R-BP496/IL6R-L (antibody, human IgG1, kappa)
heavy: B1 heavy with E235D, V266I, S269A, R332A
light: not shown

biological target: T1, human FcγRIIa type R (131Arg) …; assay: SPR

Binder | Kd [nM]
B1 | 830
B2 | 1300
B3 | 120
B4 | 13
B5 | 11

biological target: T2, human FcγRIIa type H (131His) …; assay: SPR

Binder | Kd [nM]
B6 | 40
B7 | 1800

biological target: T3, human FcγRIIb extracellular domain with …; assay: SPR

Binder | Kd [nM]
B8 | 0.1
B9 | 1.2
B10 | 51
B11 | 5600

biological target: T3, human FcγRIIb extracellular domain with …; assay: ratio of SPR KDs

Binder | KD (IIaR)/KD (IIb)
B4 | 16
B6 | 33.3
B12 | 42.3
B13 | 38.3
B14 | 30.3
B15 | 38.6
B16 | 30.3
B17 | 38.3

biological target: T2, human FcγRIIa type H (131His) …; assay: SPR; remark: another data set of the same source

Binder | Kd [nM]
B18 | 1500
B19 | 3
B20 | 8300
B14 | 15000
B5 | 13000

biological target: human FcγRIIIa type V extracellular domain with C-terminal His tag (human, UniProt P08637 17-208); assay: SPR
Target sequence in this assay (P08637 17-208 F176V): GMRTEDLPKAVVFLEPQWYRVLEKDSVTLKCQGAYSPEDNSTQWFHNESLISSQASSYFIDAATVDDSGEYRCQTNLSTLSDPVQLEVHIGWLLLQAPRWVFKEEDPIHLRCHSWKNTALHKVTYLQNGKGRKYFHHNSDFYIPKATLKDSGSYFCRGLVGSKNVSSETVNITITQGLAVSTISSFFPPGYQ

Binder | Kd [nM]
B21 | 40000
B14 | 30000

biological target: T4, human FcγRIIb extracellular domain with …; assay: SPR Biacore, ratio of KDs

Binder | KD (IIb) of the parent polypeptide/KD (IIb) of the altered polypeptide
B22 | 2.8 fold (parent IL6R-B3/IL6R-L)
B23 | 3.9 fold (parent IL6R-B3/IL6R-L)
B24 | 2.7 fold (parent IL6R-B3/IL6R-L)
B25 | 2.8 fold (parent IL6R-B3/IL6R-L)
B26 | 2.2 fold (parent IL6R-B3/IL6R-L)
B27 | 3.9 fold (parent IL6R-B3/IL6R-L)
B28 | 2.6 fold (parent IL6R-B3/IL6R-L)
B29 | 2.1 fold (parent IL6R-B3/IL6R-L)
B30 | 3.5 fold (parent IL6R-B3/IL6R-L)

biological target: T5, human FcγRIIa type H extracellular …; assay: SPR

Binder | Kd [nM]
B31 | 2100
B32 | 1000

biological target: human FcγRIIIa type V extracellular domain with C-terminal His tag (human, UniProt P08637 17-208); assay: SPR; remark: another data set of the same source
Target sequence in this assay (P08637 17-208 F176V): as above

Binder | Kd [nM]
B33 | 68
B34 | 65000

biological target: human FcγRIa extracellular domain with C-terminal His tag (human, UniProt P12314 16-292); assay: SPR
Sequence (P12314 16-292): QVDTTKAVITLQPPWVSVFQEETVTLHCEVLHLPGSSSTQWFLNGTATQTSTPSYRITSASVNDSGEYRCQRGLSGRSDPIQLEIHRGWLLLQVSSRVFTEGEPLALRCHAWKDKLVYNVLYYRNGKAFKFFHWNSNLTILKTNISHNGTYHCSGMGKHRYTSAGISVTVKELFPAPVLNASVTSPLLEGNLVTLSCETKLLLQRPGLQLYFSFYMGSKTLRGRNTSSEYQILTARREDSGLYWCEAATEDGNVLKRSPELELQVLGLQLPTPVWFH

Binder | Kd [nM]
B35 | 3800
B36 | 18
B37 | 300

biological target: T6, human FcγRIIa type R extracellular …; assay: SPR

Binder | Kd [nM]
B38 | 2500
B39 | 950

biological target: T3, human FcγRIIb extracellular domain with …; assay: ratio of SPR KDs; remark: another data set of the same source

Binder | KD (IIb) of parent polypeptide/KD (IIb) of altered polypeptide
B13 | 1020
B40 | 166
B16 | 1870

biological target: T3, human FcγRIIb extracellular domain with …; assay: ratio of SPR KDs; remark: another data set of the same source

Binder | KD (IIaH)/KD (IIb)
B4 | 230
B7 | 865
B14 | 670
